# Values of other authors as cited in publication PMC2882753.
# Tests used:
# His134 = assay: NMR; settings: 298 K; not stated (no ferricyanide present); oxidized [2Fe-2S] cluster
# His154 = assay: NMR; settings: 298 K; not stated (no ferricyanide present); oxidized [2Fe-2S] cluster
substance,measurement,setting,value
"Rieske iron-sulfur protein, soluble fragment (TtRp) (Thermus thermophilus; del1-45;del202-210;W142F)",pKa,His134,9.24 ± 0.02
same,pKa,His154,7.46 ± 0.02
